The results in this text go back to publication PMC6776665.

As usually defined, the Kd is the free concentration of one partner at which half of the binding sites on the other are occupied at equilibrium, for simple one-to-one binding. As a reminder, the koff is the rate constant with which the complex falls apart. Low values mean slow dissociation, high ones fast dissociation.

Bounds are passed on as bounds.

In test [1] the target is GST-tagged TRIM21-RING (residue 1-85) (UniProt P19474). Nature of the test: SPR; BIAcore T200; GST-T21-R captured on an anti-GST antibody-coated CM5 chip (GST on the reference channel); Ube2N or Ube2N~Ub injected in 1:2 dilution series from 80 µM; 30 µl/min; 20 mM Tris-HCl pH 8.0, 150 mM NaCl, 1 mM DTT; 25 °C; KD from equilibrium responses, single-site model. A general note: SPR reads the build-up and loss of mass on a sensor chip optically.

Another test deals with TRIM21-RING^M10E/E12R (UniProt P19474). Nature of the test: NMR titration; Ube2N^C87K/K92A titrated into 100 µM 15N-labelled T21-R^M10E constructs; KD from fits of chemical shift perturbations (five peaks); 25 °C; 50 mM deuterated Tris pH 7.0, 150 mM NaCl, 1 mM deuterated DTT.
For the next test, the target named is TRIM21-RING^M10E (UniProt P19474). The description is as above.

As for “Ube2N (as used in the SPR experiment) (enzyme)”, in test [1], the Kd amounted to 43 µM and the off-rate constant (koff) was over 1 s⁻¹.
“isopeptide-linked Ube2N^C87K/K92A~ubiquitin conjugate (from UniProt P0CG48 1-76) (complex)”: in test [1], the Kd is 5 µM and the koff is 0.15 s⁻¹.
Take Ube2N^C87K/K92A (enzyme): the dissociation constant Kd was 57 µM in the test with TRIM21-RING^M10E/E12R and 15 µM with TRIM21-RING^M10E.
